The target of experiment [1] is HLA-A*24 (human). The experiment can be described thus: UV-exchange ELISA (anti-b2m); yield >=75%. A general note: In an ELISA, binding on a coated surface is turned into a signal by an enzyme label.
The target of experiment [2] is HLA-A*24 (human). The experiment can be described thus: UV-exchange ELISA (anti-b2m); yield 50%-75%.

This note sets out measurements from patent publication US20170056486A1.

As to QYLDGTWSL, the peptide exchange yield in the experiment with HLA-A*24 (human) [1] was more than 75%. The molecule QYLELAHSL returned a peptide exchange yield in the experiment with HLA-A*24 (human) [2] of 50 to 75%. Regarding VFSPDGHLF, the peptide exchange yield with HLA-A*24 (human) [2] lay in the range of 50 to 75%. Same read-out and setting: then RYFKGDYSI, with 50 to 75%; and VYIAELEKI, with 50 to 75%. Still for that read-out and setting: then VYNEQIRDLL, with 50 to 75%; and IYGEKTYAF, with 50 to 75%; and VYVIEPHSMEF, with 50 to 75%.

For IYVTGGHLF, in the experiment with HLA-A*24 (human) [2], the peptide exchange yield fell in the range of 50 to 75%. As to RFIGIPNQF, in the experiment with HLA-A*24 (human) [2], the peptide exchange yield lay within 50 to 75%. The same measure, in the same setting: for KYTEKLEEI the value was 50 to 75%; for AYLPPLQQVF, 50 to 75%. The same measure, in the same setting: for GYISNGELF the value was 50 to 75%.

Molecule VYTHEVVTL came in with a peptide exchange yield with HLA-A*24 (human) [2] of 50 to 75%. Still for that read-out and setting: for KYGNFIDKL the value was 50 to 75%; for KYQNVKHNL, 50 to 75%.

In turn, SYLTWHQQI showed a peptide exchange yield with HLA-A*24 (human) [1] of more than 75%.

With YYTQYSQTI, the peptide exchange yield with HLA-A*24 (human) [1] was more than 75%.

In the experiment with HLA-A*24 (human) [2], YYSEVPVKL came in with a peptide exchange yield of 50 to 75%. The same measure, in the same setting: then QYIEELQKF, with 50 to 75%. In the experiment with HLA-A*24 (human) [2], VFDTSIAQLF had a peptide exchange yield of 50 to 75%. As to RYFDVGLHNF, the peptide exchange yield with HLA-A*24 (human) [2] lay within 50 to 75%. Molecule FYIPHVPVSF registered a peptide exchange yield with HLA-A*24 (human) [2] of 50 to 75%. On the same count and under the same terms, then QYTPHSHQF, with 50 to 75%.

For KYLNENQLSQL, the peptide exchange yield with HLA-A*24 (human) [2] was 50 to 75%. As for TFSDVEAHF, the peptide exchange yield with HLA-A*24 (human) [2] was in the range of 50 to 75%. Still for that read-out and setting: then QYGGDLTNTF, with 50 to 75%. NYAFLHRTL: the peptide exchange yield with HLA-A*24 (human) [2] was in the range of 50 to 75%. With RYKPGEPITF, in the experiment with HLA-A*24 (human) [2], the peptide exchange yield lay within 50 to 75%.

The molecule VYTPVASRQSL yielded a peptide exchange yield in the experiment with HLA-A*24 (human) [2] of 50 to 75%. Turning to EYNSDLHQFF, in the experiment with HLA-A*24 (human) [2], the peptide exchange yield lay within 50 to 75%. Still for that read-out and setting: for EYNSDLHQF the value was 50 to 75%. The same measure, in the same setting: for IYLEHTESI the value was 50 to 75%; for KYPASSSVF, 50 to 75%. As to LFITGGQFF, the peptide exchange yield in the experiment with HLA-A*24 (human) [1] was more than 75%. Molecule SYLTQHQRI displayed a peptide exchange yield in the experiment with HLA-A*24 (human) [2] of 50 to 75%. Molecule TYGKIDLGF showed a peptide exchange yield with HLA-A*24 (human) [2] of 50 to 75%.

As to NYLGGTSTI, the peptide exchange yield in the experiment with HLA-A*24 (human) [2] lay in the range of 50 to 75%. As for QYILAVPVL, in the experiment with HLA-A*24 (human) [1], the peptide exchange yield is more than 75%. Molecule QYSIISNVF came in with a peptide exchange yield in the experiment with HLA-A*24 (human) [2] of 50 to 75%. TYTFLKETF had a peptide exchange yield in the experiment with HLA-A*24 (human) [1] of more than 75%. As for TYSNSAFQYF, the peptide exchange yield with HLA-A*24 (human) [2] was in the range of 50 to 75%.

Molecule KYTDYILKI yielded a peptide exchange yield with HLA-A*24 (human) [2] of 50 to 75%.

IYAPTLLVF came in with a peptide exchange yield in the experiment with HLA-A*24 (human) [2] of 50 to 75%. The same measure, in the same setting: for IFHEVPLKF the value was 50 to 75%; for VYAEVNSL, 50 to 75%. In the experiment with HLA-A*24 (human) [2], TYADIGGLDNQI displayed a peptide exchange yield of 50 to 75%.

Molecule VYFEGSDFKF displayed a peptide exchange yield with HLA-A*24 (human) [2] of 50 to 75%. Same read-out and setting: for SYTSVLSRL the value was 50 to 75%.
